Several values for one entry are separate records, joined by “and”; a condition that tells them apart may be missing. Equal values may be shown once.
How the values were obtained:
[1] = biological target: α-Synuclein preformed fibrils (α-Syn PFF) (mouse) (UniProt O55042); experiment: SPR
[2] = biological target: α-Synuclein preformed fibrils (α-Syn PFF) (mouse) (UniProt O55042); experiment: ELISA

ΔLRR hNOD2-Fc, sequence (Q9HC29 whole entry, stated change not applied, the tested form may be a part): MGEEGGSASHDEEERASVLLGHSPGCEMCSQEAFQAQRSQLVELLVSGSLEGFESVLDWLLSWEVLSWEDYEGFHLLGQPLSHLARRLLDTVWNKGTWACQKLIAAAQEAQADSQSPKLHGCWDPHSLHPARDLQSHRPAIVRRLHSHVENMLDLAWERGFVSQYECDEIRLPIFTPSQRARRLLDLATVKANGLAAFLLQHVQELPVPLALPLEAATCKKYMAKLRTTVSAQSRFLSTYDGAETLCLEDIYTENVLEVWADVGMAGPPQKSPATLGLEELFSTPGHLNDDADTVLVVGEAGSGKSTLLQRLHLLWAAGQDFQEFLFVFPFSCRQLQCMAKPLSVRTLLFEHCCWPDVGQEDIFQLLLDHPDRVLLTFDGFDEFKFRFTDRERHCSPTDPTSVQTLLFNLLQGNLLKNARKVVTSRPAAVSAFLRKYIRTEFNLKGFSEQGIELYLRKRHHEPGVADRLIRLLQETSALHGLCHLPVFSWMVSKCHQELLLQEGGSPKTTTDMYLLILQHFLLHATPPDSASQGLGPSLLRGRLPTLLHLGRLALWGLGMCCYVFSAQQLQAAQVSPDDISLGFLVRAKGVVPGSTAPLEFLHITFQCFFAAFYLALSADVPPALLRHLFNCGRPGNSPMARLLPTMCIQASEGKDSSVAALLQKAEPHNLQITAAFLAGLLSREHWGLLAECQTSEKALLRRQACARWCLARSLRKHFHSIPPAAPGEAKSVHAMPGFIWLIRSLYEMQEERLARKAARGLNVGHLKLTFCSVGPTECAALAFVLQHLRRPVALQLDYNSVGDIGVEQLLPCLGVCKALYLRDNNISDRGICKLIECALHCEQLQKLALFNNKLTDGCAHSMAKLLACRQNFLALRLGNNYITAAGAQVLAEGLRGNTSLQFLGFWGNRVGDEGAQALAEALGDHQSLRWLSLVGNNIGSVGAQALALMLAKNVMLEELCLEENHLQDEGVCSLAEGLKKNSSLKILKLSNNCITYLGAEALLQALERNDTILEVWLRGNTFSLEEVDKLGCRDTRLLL

Substance | Kd [1] | Kd [2] [nM]
FL hNOD2 with the Fc-tag removed by HRV 3C protease (from UniProt Q9HC29 1-1040) (natural protein) | 807 nM and 1190 nM | –
human IgG1 Fc-tagged human NOD2 full-length (FL hNOD2-Fc) (from UniProt Q9HC29 1-1040) (Fc fusion) | – | 1200
ΔLRR hNOD2-Fc (from UniProt Q9HC29 1-1040) (Fc fusion) | – | 2810

Reference: paper doi:10.1101/2024.02.19.580982
